Assay results: paper PMC7925594 (Nature Communications, 2021)

Key:
linear tetra-ubiquitin = target: T1, linear tetra-ubiquitin (UniProt P0CG48 1-76; P0CG48 1-76; P0CG48 1-76; P0CG48 1-76); assay: co-IP; purified recombinant HA-N4BP1 or domain deletion forms incubated with ubiquitin chains in assay buffer (50 mM Tris-HCl pH 7.4, 150 mM NaCl, 1 mM dithiothreitol) for 2 h at 4 °C; immunoprecipitation with anti-HA (mouse IgG as control); immunoblot; settings: both partners purified
T1 construct: ubiquitin, unit 1 of 4; ubiquitin, unit 2 of 4; ubiquitin, unit 3 of 4; ubiquitin, unit 4 of 4; also called linear tetra-ubiquitin chains; source: bought: LifeSensors (recombinant)

linear hepta-ubiquitin = target: T2, linear hepta-ubiquitin (UniProt P0CG48 1-76; P0CG48 1-76; P0CG48 1-76; P0CG48 1-76; P0CG48 1-76; P0CG48 1-76; …); assay: as above; settings: both partners purified
T2 construct: ubiquitin, unit 1 of 7; ubiquitin, unit 2 of 7; ubiquitin, unit 3 of 7; ubiquitin, unit 4 of 7; ubiquitin, unit 5 of 7; ubiquitin, unit 6 of 7; ubiquitin, unit 7 of 7; The reagents name a supplier only for the tetra-ubiquitins; also called linear ubiquitin chains; linear polyubiquitin chains
T2 sequence (P0CG48 1-532, one chain of several): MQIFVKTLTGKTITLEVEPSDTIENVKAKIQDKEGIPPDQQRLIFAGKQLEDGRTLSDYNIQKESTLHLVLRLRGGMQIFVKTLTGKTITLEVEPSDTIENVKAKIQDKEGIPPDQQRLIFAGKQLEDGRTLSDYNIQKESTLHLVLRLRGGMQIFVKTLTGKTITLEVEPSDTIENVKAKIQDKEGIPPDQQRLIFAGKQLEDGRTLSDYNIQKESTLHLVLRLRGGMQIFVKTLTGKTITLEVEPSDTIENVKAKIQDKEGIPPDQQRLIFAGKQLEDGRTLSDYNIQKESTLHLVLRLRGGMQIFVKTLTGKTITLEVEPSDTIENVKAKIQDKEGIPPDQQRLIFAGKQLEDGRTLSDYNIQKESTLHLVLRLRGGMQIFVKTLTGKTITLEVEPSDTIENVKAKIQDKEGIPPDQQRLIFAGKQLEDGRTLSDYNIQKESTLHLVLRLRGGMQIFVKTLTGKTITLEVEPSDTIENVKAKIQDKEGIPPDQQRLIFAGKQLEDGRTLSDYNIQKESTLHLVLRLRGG

T1 sequence (P0CG48 1-304, one chain of several): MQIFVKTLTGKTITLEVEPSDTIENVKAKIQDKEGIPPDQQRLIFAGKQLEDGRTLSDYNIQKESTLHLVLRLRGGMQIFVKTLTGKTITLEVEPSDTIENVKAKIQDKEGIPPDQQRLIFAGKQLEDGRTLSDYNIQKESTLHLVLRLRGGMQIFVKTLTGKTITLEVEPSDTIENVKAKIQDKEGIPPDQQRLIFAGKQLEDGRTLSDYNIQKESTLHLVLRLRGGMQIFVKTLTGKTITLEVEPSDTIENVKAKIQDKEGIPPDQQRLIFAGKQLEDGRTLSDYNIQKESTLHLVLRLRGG

B1: HA-tagged N4BP1 (full-length) (natural protein, UniProt O75113 1-896, looked up)
chain: MAARAVLDEFTAPAEKAELLEQSRGRIEGLFGVSLAVLGALGAEEPLPARIWLQLCGAQEAVHSAKEYIKGICEPELEERECYPKDMHCIFVGAESLFLKSLIQDTCADLCILDIGLLGIRGSAEAVVMARSHIQQFVKLFENKENLPSSQKESEVKREFKQFVEAHADNYTMDLLILPTSLKKELLTLTQGEENLFETGDDEVIEMRDSQQTEFTQNAATGLNISRDETVLQEEARNKAGTPVSELTKQMDTVLSSSPDVLFDPINGLTPDEEALSNERICQKRRFSDSEERHTKKQFSLENVQEGEILHDAKTLAGNVIADLSDSSADSENLSPDIKETTEEMEYNILVNFFKTMGYSQEIVEKVIKVYGPSTEPLLLLEEIEKENKRFQEDREFSAGTVYPETNKTKNKGVYSSTNELTTDSTPKKTQAHTQQNMVEKFSQLPFKVEAKPCTSNCRINTFRTVPIEQKHEVWGSNQNYICNTDPETDGLSPSVASPSPKEVNFVSRGASSHQPRVPLFPENGLHQQPEPLLPNNMKSACEKRLGCCSSPHSKPNCSTLSPPMPLPQLLPSVTDARSAGPSDHIDSSVTGVQRFRDTLKIPYKLELKNEPGRTDLKHIVIDGSNVAITHGLKKFFSCRGIAIAVEYFWKLGNRNITVFVPQWRTRRDPNVTEQHFLTQLQELGILSLTPARMVFGERIASHDDRFLLHLADKTGGIIVTNDNFREFVNESVSWREIITKRLLQYTFVGDIFMVPDDPLGRSGPRLEEFLQKEVCLRDMQPLLSALPNVGMFDPSFRVPGTQAASTSHQPPTRIQGAPSSHWLPQQPHFPLLPALPSLQQNLPMPAQRSSAETNELREALLKIFPDSEQRLKIDQILVAHPYMKDLNALSAMVLD
notes: the vector of the other experiments is only called a mammalian expression vector; also called HA-N4BP1; F.L; source: HEK293T or N4BP1-/- HEK293T, transfected, in lysate; also overexpressed in HEK293T and purified (immunoprecipitation, HA peptide elution, Superdex 200 gel filtration); not shown: HA, N-terminal, kept
- binding result (linear tetra-ubiquitin): binds
- binding result (linear hepta-ubiquitin): binds
